# Test results published in US20250064890A1, “PROTEIN COMPOSITIONS FOR THE TREATMENT OF INFLAMMATORY DISEASES” (Unichem Laboratories Limited, priority 2021, published 2025).
# B1: SEQ ID NO 2: recombinant lectin, variant of the S. rolfsii lectin amino acid sequence (reported as Rec-2 in WO 2010/095143) (protein)
# chain: TYKITVRVYQTNPDAFFHPVEKTVWKYANGGTWTITDDQHVLTMGGSGTSGTLRFHADNGESFTATFGVHNYKRWCDIVTNLAADETGMVINQQYYSQKNREEARERQLSNYQVKNAKGRNFQIVYTEAEGNDLHANLIIG
# How the values were obtained:
# [1] = system: oral (buccal) mucosa cells (TR146); test: Sub(G0/G1) cell population (cell cycle) against radiation induced damage; type: cell-based, human; settings: for % Decrease in Apoptotic cells (with respect to control): Sub G0/G1
# Method: (§1) To determine the effect of test item on cell cycle, oral buccal mucosal cells (TR146) were incubated overnight in 5% CO2 incubator at 37° C. for 24 h. […] After 24 h of treatment, cells were exposed to chemotherapy (5-FU 10 mM) for 24 h or radiotherapy (Gamma radiation (3.5 kGy) using Cobalt 60) for 2 h.
# (§2) After incubation, cells were harvested by trypsinization and processed for Cell cycle assay. Accordingly, cells were harvested into prelabeled centrifuge tubes and centrifuged at 450 g for 5 min at room temperature (RT, low brake). The supernatants were removed carefully and discarded. 1 ml of 1× phosphate buffer saline (PBS) was added to the pellet and resuspended gently to make homogenous suspension. Cells were centrifuged at 450 g for 5 min, RT (low brake). The supernatant was carefully removed leaving behind approx. 100 μl of PBS. Cells were resuspended gently yet thoroughly in residual PBS. Ice-cold 70% ethanol (100 μl) was added drop-wise into cells in each tube while vortexing at low speed (fixation step). Cells stored at 4° C. for 24 h were centrifuged at 450 g for 5 min, RT (low brake). The supernatant was carefully removed without touching the pellet and discarded. 1 ml of 1×PBS was added into pellet and resuspended gently. Cells were incubated for 1 minute at RT. Cells were centrifuged at 450 g for 5 min, RT (low brake). The supernatant was removed carefully without touching the pellet, leaving behind approx. 20-50 μl of PBS. 200 μl of cell cycle reagent was added into each tube. Cells were resuspended gently and mixed. Cells were incubated for 30 min at RT in the dark. The stained samples were transferred into 96-well plates and acquired on flow cytometer (Guava technologies). Percentage of cells in Sub (G0/G1) phase were determined based on the concept that cell cycle reagent contains PI stain, which stains DNA of cells in different phases of cell cycle; Sub (G0/G1), G1, S, G2 and M. Cells in Sub (G0/G1) phase correspond to apoptotic cells. Percent inhibition in apoptotic cells is determined by the formula:
# (§3) =[(% Sub(G0/G1) cells in 5-FU/radiation alone)−(% Sub(G0/G1) cells in TI+5-FU/radiation)/% Sub(G0/G1) cells in 5-FU/radiation alone]*100
# [2] = system: oral (buccal) mucosa cells (TR146); test: Sub(G0/G1) cell population (cell cycle) against 5-FU induced damage; type: cell-based, human; settings: for % Decrease in Apoptotic cells (with respect to control): Sub G0/G1
# Method: as §1, §2, §3
# [3] = system: 5-Fluorouracil induced OM; test: Mucositis severity score, 5-FU induced OM in hamsters; type: in vivo, golden Syrian hamsters; settings: for Mucositis score: after 12 days, scale 0-5
# Method: To induce OM, animals were administered (except normal control) 5-Fluorouracil (5-FU) by intraperitoneal route at doses of 60 mg/kg & 40 mg/kg respectively on first two days. On Day 4, under anesthesia, with aim of enhancing OM, mechanical irritation of the oral mucosa were done using wire brush. Treatment was initiated from Day 4 to Day 12. For group 3 animals 100 μl of vehicle comprising of standard drug Dexamethasone at 0.1 mg was instilled in buccal cheek pouch. For group 4, 5 and 6 animals 100 μl of vehicle comprising of SEQ ID NO. 2 at 0.25 mg, 0.5 mg & 1 mg, respectively was instilled in buccal cheek pouch. At the end of treatment period, cheek pouch of the hamsters was exposed, Mucositis scoring was carried out and images were captured. The animals were then humanely sacrificed, cheek pouch/jugular mucosa were isolated and used for biomarker estimation and histopathological investigation by using ELISA method and Hematoxylin and Eosin (H&E) staining, respectively.
# Mucositis severity was scored as given below: • Cheek pouch completely healthy—0; Mild erythema—1; • Severe erythema and superficial erosion—2; Formation of ulcers in one or more places—3; Cumulative ulcer formation about 50% of cheek pouch surface area—4; Complete ulceration of the cheek pouch mucosa—5.
# [4] = system: oral (buccal) mucosa cells (TR146); test: Annexin positive cell population against 5-FU damage; type: cell-based, human
# [5] = 0.01 μg/ml + Radiation (3.5 kGy)
# [6] = 0.1 μg/ml + Radiation (3.5 kGy)
molecule,measurement,setting,value
B1,% Apoptotic cells (Sub G0/G1),[1]; [5],15.2%
same,% Decrease in Apoptotic cells (with respect to control),[1]; [5],56.9%
same,% Apoptotic cells (Sub G0/G1),[1]; [6],14.3%
same,% Decrease in Apoptotic cells (with respect to control),[1]; [6],59.5%
same,% Apoptotic cells (Sub G0/G1),[1]; 1 μg/ml + Radiation (3.5 kGy),22.3%
same,% Decrease in Apoptotic cells (with respect to control),[1]; 1 μg/ml + Radiation (3.5 kGy),36.9%
same,% Apoptotic cells (Sub G0/G1),[1]; 10 μg/ml + Radiation (3.5 kGy),35.7%
same,% Decrease in Apoptotic cells (with respect to control),[1]; 10 μg/ml + Radiation (3.5 kGy),−1.3%
same,% Apoptotic cells (Sub G0/G1),[2]; 0.1 μg/ml + 5FU (10 mM),11.4%
same,% Decrease in Apoptotic cells (with respect to control),[2]; 0.1 μg/ml + 5FU (10 mM),63.1%
same,% Apoptotic cells (Sub G0/G1),[2]; 10 μg/ml + 5FU (10 mM),6.8%
same,% Decrease in Apoptotic cells (with respect to control),[2]; 10 μg/ml + 5FU (10 mM),78%
same,% Apoptotic cells (Sub G0/G1),[2]; 25 μg/ml + 5FU (10 mM),14.2%
same,% Decrease in Apoptotic cells (with respect to control),[2]; 25 μg/ml + 5FU (10 mM),54.1%
same,% Apoptotic cells (Sub G0/G1),[2]; 50 μg/ml + 5FU (10 mM),40.7%
same,% Decrease in Apoptotic cells (with respect to control),[2]; 50 μg/ml + 5FU (10 mM),−32.0%
same,Mucositis score,"[3]; G4, 0.25 mg/animal",3.00±0.4
same,Mucositis score,"[3]; G5, 0.5 mg/animal",2.8±0.3
same,Mucositis score,"[3]; G6, 1 mg/animal",4.00±0.3
same,mucositis score as compared to the untreated subjects,"[3]; hamsters suffering from OM, in words",reduction
same,% Apoptotic cells (Annexin +ve),[4]; 0.01 μg/ml + 5FU (10 mM),3%
same,% Decrease in Apoptotic cells (with respect to 5-FU),[4]; 0.01 μg/ml + 5FU (10 mM),81.7%
same,% Apoptotic cells (Annexin +ve),[4]; 1 μg/ml + 5FU (10 mM),3.1%
same,% Decrease in Apoptotic cells (with respect to 5-FU),[4]; 1 μg/ml + 5FU (10 mM),81.1%
same,% Apoptotic cells (Annexin +ve),[4]; 10 μg/ml + 5FU (10 mM),8%
same,% Decrease in Apoptotic cells (with respect to 5-FU),[4]; 10 μg/ml + 5FU (10 mM),51.5%
same,% Apoptotic cells (Annexin +ve),[4]; 50 μg/ml + 5FU (10 mM),19.3%
same,% Decrease in Apoptotic cells (with respect to 5-FU),[4]; 50 μg/ml + 5FU (10 mM),−17.4%
same,% Apoptotic cells (Annexin +ve),[4]; 100 μg/ml + 5FU (10 mM),26%
same,% Decrease in Apoptotic cells (with respect to 5-FU),[4]; 100 μg/ml + 5FU (10 mM),−58.5%
